Three substances from paper PMC7319778 can be followed below.

In this assay the target is human toll-like receptor 4 (TLR4) on HEK293 cells expressing human TLR4-MD2-CD14 (human) (UniProt O00206). The experiment in a line: flow cytometry on cells. Background: A flow cytometer gives signals particle by particle.
Chain of UniProt O00206 (O00206 24-839): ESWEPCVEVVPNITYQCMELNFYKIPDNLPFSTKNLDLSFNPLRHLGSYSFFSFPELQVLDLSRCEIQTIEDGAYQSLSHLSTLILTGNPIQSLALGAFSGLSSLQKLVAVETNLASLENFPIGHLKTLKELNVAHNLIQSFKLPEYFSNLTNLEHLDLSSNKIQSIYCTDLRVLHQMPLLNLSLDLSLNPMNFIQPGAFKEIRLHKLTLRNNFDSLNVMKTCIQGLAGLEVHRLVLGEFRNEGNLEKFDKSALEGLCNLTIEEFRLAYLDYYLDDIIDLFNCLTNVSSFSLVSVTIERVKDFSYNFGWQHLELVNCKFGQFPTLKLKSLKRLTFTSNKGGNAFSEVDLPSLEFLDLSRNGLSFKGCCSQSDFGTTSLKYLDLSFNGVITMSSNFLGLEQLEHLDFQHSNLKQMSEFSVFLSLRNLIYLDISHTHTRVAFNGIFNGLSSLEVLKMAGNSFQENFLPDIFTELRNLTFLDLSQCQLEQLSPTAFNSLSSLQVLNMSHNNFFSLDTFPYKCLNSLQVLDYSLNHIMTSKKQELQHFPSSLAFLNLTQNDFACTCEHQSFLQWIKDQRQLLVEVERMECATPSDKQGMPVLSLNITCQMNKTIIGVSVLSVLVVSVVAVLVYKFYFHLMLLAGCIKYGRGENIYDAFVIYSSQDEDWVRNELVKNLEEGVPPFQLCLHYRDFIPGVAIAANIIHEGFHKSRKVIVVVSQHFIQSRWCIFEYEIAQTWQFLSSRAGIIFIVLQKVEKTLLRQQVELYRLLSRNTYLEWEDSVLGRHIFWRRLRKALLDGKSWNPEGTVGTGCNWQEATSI

Consider “hEDA-HPVE7-16 fusion protein (human extra domain A from fibronectin fused to E7 protein from HPV16)”, for which the level of fluorescence (percent, flow cytometry) came to 19.5%.
The substance “hEDA-HPVE7-16/18 fusion protein (human extra domain A from fibronectin fused to E7 proteins from HPV16 and HPV18)” registered a TLR4-binding capacity (percent, flow cytometry) of 36.9%.
Turning to “mEDA-HPVE7-16 fusion protein (extra domain A from murine fibronectin fused to E7 protein from HPV16)”, the TLR4-binding capacity (percent, flow cytometry) came to 40.2%.
